Assay results reported in article doi:10.1101/2025.07.16.665153.

Target: endogenous MpUVR8 of Marchantia polymorpha (Marchantia polymorpha (endogenous in Tak-1 gemmalings))
Experiment: cross-linking

stoichiometry N: 2
Substance: endogenous MpUVR8 of Marchantia polymorpha (natural protein)
